From the supplement of paper PMC11246515
± gives the standard deviation of the averaged measurements.

Assay: total protein half-life in vivo (active degradation + dilution); higher = more stable protein
[1] = E. coli NCM3722 delta-clpP delta-lon delta-hslV, growth: N-lim chemostat, doubling time 6 h
[2] = E. coli NCM3722 delta-clpP, growth: N-lim chemostat, doubling time 6 h
[3] = E. coli NCM3722 delta-hslV, growth: N-lim chemostat, doubling time 6 h
[4] = E. coli NCM3722 delta-lon, growth: N-lim chemostat, doubling time 6 h
[5] = wild type E. coli NCM3722, growth: C-lim chemostat, doubling time 3 h
[6] = wild type E. coli NCM3722, growth: C-lim chemostat, doubling time 6 h
[7] = wild type E. coli NCM3722, growth: C-lim chemostat, doubling time 12 h
[8] = wild type E. coli NCM3722, growth: N-lim chemostat, doubling time 6 h
[9] = wild type E. coli NCM3722, growth: N-lim chemostat, doubling time 12 h
[10] = E. coli NCM3722 delta-smpB, growth: N-lim chemostat, doubling time 6 h
[11] = wild type E. coli NCM3722, growth: P-lim chemostat, doubling time 6 h
[12] = wild type E. coli NCM3722, growth: P-lim chemostat, doubling time 12 h

Row | Sequence | total protein half-life in vivo [1] [h] | total protein half-life in vivo [2] [h] | total protein half-life in vivo [3] [h] | total protein half-life in vivo [4] [h] | total protein half-life in vivo [5] [h] | total protein half-life in vivo [6] [h] | total protein half-life in vivo [7] [h] | total protein half-life in vivo [8] [h] | total protein half-life in vivo [9] [h] | total protein half-life in vivo [10] [h] | total protein half-life in vivo [11] [h] | total protein half-life in vivo [12] [h]
1 | MSLVCSVIFIHHAFNANILDKDYAFSDGEILMVDNAVRTHFEPYERHFKEIGFTENTIKKYLQCTNIQTVTVPVPAKFLRASNVPTGLLNEMIAYLNSEERNHHNFSELLLFSCLSIFAACKGFITLLTNGVLSVSGKVRNIVNMKPAHPWKLKDICDCLYISESLLKKKLKQEQTTFSQILLDARMQHAKNLIRVEGSVNKIAEQCGYASTSYFIYAFRKHFGNSPKRVSKEYRCQSHTGMNTGNTMNALAI | 4.92 |  |  |  |  |  |  |  |  |  |  | 
2 | MHVTLVEINVHEDKVDEFIEVFRQNHLGSVQEEGNLRFDVLQDPEVNSRFYIYEAYKDEDAVAFHKTTPHYKTCVAKLESLMTGPRKKRLFNGLMP | 4.55 ± 0.72 | 2.71 | > 8 | 3 ± 0.2 | 2.49 ± 0.49 | 3.66 ± 0.24 | 3.93 ± 0.26 | 2.69 | 4.86 |  |  | 
3 | MSNWPYPRIVAHRGGGKLAPENTLASIDVGAKYGHKMIEFDAKLSKDGEIFLLHDDNLERTSNGWGVAGELNWQDLLRVDAGSWYSKMFKGEPLPLLSQVAERCREHGMMANIEIKPTTGTGPLTGKMVALAARELWAGMTPPLLSSFEIDALEAAQQAAPELPRGLLLDEWRDDWRELTARLGCVSIHLNHKLLNKARVMQLKDAGLRILVYTVNKPQRAAELLRWGVDCICTDAIDVIGPNFTAQ | 4.77 ± 0.94 | 3.75 ± 0.46 | 3.65 ± 0.043 | 4.1 ± 0.021 | 3.33 ± 0.72 | 5.491 ± 0.049 | 9.38 ± 0.43 | 3.87 ± 0.31 | 6.08 ± 0.18 | 3.72 ± 0.12 | 5.07 ± 0.11 | 9.88 ± 0.3
4 | MSDISKASLPKAIFLMGPTASGKTALAIELRKILPVELISVDSALIYKGMDIGTAKPNAEELLAAPHRLLDIRDPSQAYSAADFRRDALAEMADITAAGRIPLLVGGTMLYFKALLEGLSPLPSADPEVRARIEQQAAEQGWESLHRQLQEVDPVAAARIHPNDPQRLSRALEVFFISGKTLTELTQTSGDALPYQVHQFAIAPASRELLHQRIEQRFHQMLASGFEAEVRALFARGDLHTDLPSIRCVGYRQMWSYLEGEISYDEMVYRGVCATRQLAKRQITWLRGWEGVHWLDSEKPEQARDEVLQVVGAIAG |  | 4.338 ± 0.019 | 5.26 ± 1.1 | 5.42 ± 0.37 | 3.18 ± 0.12 | 5.47 ± 0.15 | 8.97 ± 0.41 | 4.32 ± 0.4 | 6.84 ± 1.1 | 4.279 ± 0.03 | 5.67 ± 0.43 | 11.71 ± 0.1
5 | MSIISTKYLLQDAQANGYAVPAFNIHNAETIQAILEVCSEMRSPVILAGTPGTFKHIALEEIYALCSAYSTTYNMPLALHLDHHESLDDIRRKVHAGVRSAMIDGSHFPFAENVKLVKSVVDFCHSQDCSVEAELGRLGGVEDDMSVDAESAFLTDPQEAKRFVELTGVDSLAVAIGTAHGLYSKTPKIDFQRLAEIREVVDVPLVLHGASDVPDEFVRRTIELGVTKVNVATELKIAFAGAVKAWFAENPQGNDPRYYMRVGMDAMKEVVRNKINVCGSANRISA [P0AB74] | > 8 |  |  |  | 2.35 ± 1.1 | 3.2 | 4.72 |  |  |  |  | 
6 | MKIGTVAGTNDSTTTIATNDMVQEHVTNFTKELFGYIANGIGDDISSIARTMLGEVVEKIDDWQIERFQQSIQDDKISFTIQTDHSEKYSMLSGMRAHILRRNNNYQFIVTINSKNYGCSLDNTDINWCSIVYLLNNMTVNDNANDVAVTESYKPIWNWKISQYNVSDIKFETMIKPQFADRIYFSNCLPVDPTSTRPTYFGDTDGSVGAVLFALFATGHLGIMAEGENFLSQLLNIEDEVLNVLLRENFNEQLNTNVNTIISILNRRDIILESLQPYLVINKDAVTPCTFLGDQTGDRFSNICGDQFIIDLLKRIMSINENVHVLAGNHETNCNGNYMQNFTRMKPLDEDTYSGIKDYPVCFYDPKYKIMANHHGITFDDQRKRYIIGPITVSIDEMTNALDPVELAAIINKKHHAIINGKKFKTSRAISCRSFNRYFSVSTDYRPKLEALLACSQMLGINQVVAHNGNGGRERIGETGTVLGLNARDSKHAGRMFSMHNCQINPGAGPEITTPWKSYQHEKNRNGLMPLIRRRTMLQL | 5.59 ± 0.23 |  |  |  |  |  |  |  |  |  |  | 
7 | MVSETKTTEAPGLRRELKARHLTMIAIGGSIGTGLFVASGATISQAGPGGALLSYMLIGLMVYFLMTSLGELAAYMPVSGSFATYGQNYVEEGFGFALGWNYWYNWAVTIAVDLVAAQLVMSWWFPDTPGWIWSALFLGVIFLLNYISVRGFGEAEYWFSLIKVTTVIVFIIVGVLMIIGIFKGAQPAGWSNWTIGEAPFAGGFAAMIGVAMIVGFSFQGTELIGIAAGESEDPAKNIPRAVRQVFWRILLFYVFAILIISLIIPYTDPSLLRNDVKDISVSPFTLVFQHAGLLSAAAVMNAVILTAVLSAGNSGMYASTRMLYTLACDGKAPRIFAKLSRGGVPRNALYATTVIAGLCFLTSMFGNQTVYLWLLNTSGMTGFIAWLGIAISHYRFRRGYVLQGHDINDLPYRSGFFPLGPIFAFILCLIITLGQNYEAFLKDTIDWGGVAATYIGIPLFLIIWFGYKLIKGTHFVRYSEMKFPQNDKK |  | > 8 |  | 5.36 |  | > 8 | > 16 | 6.92 |  | 6.44 | 6.22 | 8.87
8 | MEYQLTLNWPDFLERHWQKRPVVLKRGFNNFIDPISPDELAGLAMESEVDSRLVSHQDGKWQVSHGPFESYDHLGETNWSLLVQAVNHWHEPTAALMRPFRELPDWRIDDLMISFSVPGGGVGPHLDQYDVFIIQGTGRRRWRVGEKLQMKQHCPHPDLLQVDPFEAIIDEELEPGDILYIPPGFPHEGYALENAMNYSVGFRAPNTRELISGFADYVLQRELGGNYYSDPDVPPRAHPADVLPQEMDKLREMMLELINQPEHFKQWFGEFISQSRHELDIAPPEPPYQPDEIYDALKQGEVLVRLGGLRVLRIGDDVYANGEKIDSPHRPALDALASNIALTAENFGDALEDPSFLAMLAALVNSGYWFFEG | 5 ± 0.51 | 5.08 ± 0.63 | 4.45 ± 0.092 | 4.25 ± 0.14 | 3.12 ± 0.54 | 5.25 ± 0.26 | 10.1 ± 1 | 4.6 ± 0.32 | 8.11 ± 0.15 | 4.63 ± 0.28 | 6.71 ± 1.1 | 13 ± 0.99
9 | MGQRIPVTLGNIAPLSLRPFQPGRIALVCEGGGQRGIFTAGVLDEFMRAQFNPFDLYLGTSAGAQNLSAFICNQPGYARKVIMRYTTKREFFDPLRFVRGGNLIDLDWLVEATASQMPLQMDTAARLFDSGKSFYMCACRQDDYAPNYFLPTKQNWLDVIRASSAIPGFYRSGVSLEGINYLDGGISDAIPVKEAARQGAKTLVVIRTVPSQMYYTPQWFKRMERWLGDSSLQPLVNLVQHHETSYRDIQQFIEKPPGKLRIFEIYPPKPLHSIALGSRIPALREDYKLGRLCGRYFLATVGKLLTEKAPLTRHLVPVVTPESIVIPPAPVANDTLVAEVSDAPQANDPTFNNEDLA | 5.99 ± 1.5 | 1.8805 ± 0.0012 | 1.31 ± 0.025 | 1.89 ± 0.25 | 1.89 ± 0.15 | 3.889 ± 0.011 | 4.59 ± 0.59 | 1.45 ± 0.16 | 1.77 ± 0.024 | 1.185 ± 0.0061 | 2.12 ± 0.31 | 4.69 ± 0.97
10 | MSGKPAARQGDMTQYGGSIVQGSAGVRIGAPTGVACSVCPGGVTSGHPVNPLLGAKVLPGETDIALPGPLPFILSRTYSSYRTKTPAPVGSLGPGWKMPADIRLQLRDNTLILSDNGGRSLYFEHLFPGEDGYSRSESLWLVRGGVAKLDEGHRLAALWQALPEELRLSPHRYLATNSPQGPWWLLGWCERVPEADEVLPAPLPPYRVLTGLVDRFGRTQTFHREAAGEFSGEITGVTDGAGRHFRLVLTTQAQRAEEARQQAISGGTEPSAFPDTLPGYTEYGRDNGIRLSAVWLTHDPEYPENLPAAPLVRYGWTPRGELAAVYDRSNTQVRSFTYDDKYRGRMVAHRHTGRPEICYRYDSDGRVTEQLNPAGLSYTYQYEKDRITITDSLNRREVLHTQGEGGLKRVVKKEHADGSVTQSQFDAVGRLRAQTDAAGRTTEYSPDVVTGLITRITTPDGRASAFYYNHHSQLTSATGPDGLEIRREYDEWGRLIQETAPDGDITRYRYDNPHSDLPCATEDATGSRKTMTWSRYGQLLSFTDCSGYVTRYDHDRFGQVTAVHREEGLSQYRAYDSRGQLIAVKDTQGHETRYEYNAAGDLTTVIAPDGSRNGTQYDAWGKAICTTQGGLTRSMEYDAAGRVIRLTSENGSHTTFRYDVLDRLIQETGFDGRTQRYHHDLTGKLIRSEDEGLVTHWHYDEADRLTHRTVNGETAERWQYDERGWLTDISHISEGHRVTVHYGYDSKGRLASEHLTVHHPQTNELLWQHETRHAYNAQGLANRCIPDSLPAVEWLTYGSGWLSGMKLGDTPLVEYTRDRLHRETLRSFGRYELTTAYTPAGQLQSQHLNSLLSDRDYTWNDNGELIRISSPRQTRSYSYSTTGRLTGVHTTAANLDIRIPYTTDPAGNRLPDPELHPDSALSMWPDNRIARDAHYLYRYDRHGRLTEKTDLIPEGVIRTDDERTHRYHYDSQHRLVHYTRTQYAEPLVESRYLYDPLGRRVAKRVWRRERDLTGWMSLSRKPQVTWYGWDGDRLTTIQNDRTRIQTIYQPGSFTPLIRVETATGELAKTQRRSLADTLQQSGGEDGGSVVFPPVLVQMLDRLESEILADRVSEESRRWLASCGLTVAQMQSQMDPVYTPARKIHLYHCDHRGLPLALISTEGTTAWYAEYDEWGNLLNEENPHQLQQLIRLPGQQYDEESGLYYNRHRYYDPLQGRYITQDPIGLKGGWNFYQYPLNPISNIDPLGLETLKCIKPLHSMGGTGERSGPDIWGNPFYHQYLCVPDGKGDYTCGGQDQRGESKGDGLWGPGKASNDTKEAAGRCDLVETDNSCVENCLKGKFKEVRPRYSVLPDIFTPINLGLFKNCQDWSNDSLETCKMKCSGNNIGRFIRFVFTGVM |  |  |  |  |  |  |  |  |  |  |  | 13.1
11 | MLTLLHLLSAVALLVWGTHIVRTGVMRVFGARLRTVLSRSVEKKPLAFCAGIGVTALVQSSNATTMLVTSFVAQDLVALAPALVIVLGADVGTALMARILTFDLSWLSPLLIFIGVIFFLGRKQSRAGQLGRVGIGLGLILLALELIVQAVTPITQANGVQVIFASLTGDILLDALIGAMFAIISYSSLAAVLLTATLTAAGIISFPVALCLVIGANLGSGLLAMLNNSAANAAARRVALGSLLFKLVGSLIILPFVHLLAETMGKLSLPKAELVIYFHVFYNLVRCLVMLPFVDPMARFCKTIIRDEPELDTQLRPKHLDVSALDTPTLALANAARETLRIGDAMEQMMEGLNKVMHGEPRQEKELRKLADDINVLYTAIKLYLARMPKEELAEEESRRWAEIIEMSLNLEQASDIVERMGSEIADKSLAARRAFSLDGLKELDALYEQLLSNLKLAMSVFFSGDVTSARRLRRSKHRFRILNRRYSHAHVDRLHQQNVQSIETSSLHLGLLGDMQRLNSLFCSVAYSVLEQPDEDEGRDEY [P0AF43] | 6.4 | 6.35 ± 0.26 | 5.73 ± 0.74 |  |  | 5.38 ± 0.19 |  | 6.48 | 10.5 ± 4.5 |  | 6.1173 ± 0.0061 | 11.55 ± 0.033
12 | MLKLLKTIMRAGTATVKYPFAPLEVSPGFRGKPDLMPSQCIACGACACACPANALTIQTDDQQNSRTWQLYLGRCIYCGRCEEVCPTRAIQLTNNFELTVTNKADLYTRATFHLQRCSRCERPFAPQKTIALAAELLAQQQNAPQNREMLWAQASVCPECKQRATLINDDTDVLLVAKEQL | 4.78 |  |  |  |  |  |  |  |  |  |  | 
